Positions count from the first letter of the chain named.

Sequences and labels used below:
B1: humanized antibody molecule HA-I-A (antibody, human IgG1, kappa, L234A L235A, V domains shown)
VH: QVQLVESGGGLVKPGGSLRLSCAASGFTFSDYYMFWVRQAPGKGLEWVATISDGGTYTYYPDSVKGRFTISRDNAKNSLYLQMNSLRAEDTAVYYCARDGGYVSSPEAMDYWGQGTLVTVSS
VL: DIVLTQSPSSLSASVGDRVTITCRASQDISNYLNWYQQKPGKAPKLLIYYTSRLHSGVPSRFSGSGSGTDFTFTISSLQPEDIATYYCQQGNTLPPTFGGGTKVEIKR
notes: anti-IL-11 monoclonal antibody HA-I-A
B2: murine antibody molecule MA-I (mouse IgG1 / mouse Ckappa) (antibody)
heavy: EVKLEESGGGLVKPGGSLKLSCAASGFTFSDYYMFWVRQTPEKRLEWVATISDGGTYTYYPDSVKGRFTISRDNAKNNLYLQMTSLKSEDTAMYYCARDGGYVSSPEAMDYWGQGTSVTVSSAKTTPPSVYPLAPGSAAQTNSMVTLGCLVKGYFPEPVTVTWNSGSLSSGVHTFPAVLQSDLYTLSSSVTVPSSTWPSETVTCNVAHPASSTKVDKKIVPRDCGCKPCICTVPEVSSVFIFPPKPKDVLTITLTPKVTCVVVDISKDDPEVQFSWFVDDVEVHTAQTQPREEQFNSTFRSVSELPIMHQDWLNGKEFKCRVNSAAFPAPIEKTISKTKGRPKAPQVYTIPPPKEQMAKDKVSLTCMITDFFPEDITVEWQWNGQPAENYKNTQPIMDTDGSYFVYSKLNVQKSNWEAGNTFTCSVLHEGLHNHHTEKSLSHSPG
light: DIVLTQSTSSLSASLGDRVTISCRASQDISNYLNWYQQKPDGTVKLLIYYTSRLHSGVPSRFSGSGSGTDYSLTISNLEQEDIATYFCQQGNTLPPTFGGGTKLEIKADAAPTVSIFPPSSEQLTSGGASVVCFLNNFYPKDINVKWKIDGSERQNGVLNSWTDQDSKDSTYSMSSTLTLTKDEYERHNSYTCEATHKTSTSPIVKSFNRNEC
notes: also called murine anti-IL-11 monoclonal antibody MA-I
B3: murine antibody molecule MA-IV (mouse IgG1 / mouse Ckappa) (antibody, V domains shown)
VH: EVQLEESGGGLVKPGGSLKLSCVASGFTFSDYYMFWVRQTPEKRLEWVATISDGGSYSYYPDSVKGRFTISRDNAKNNLYLQMSSLRSEDTAMYYCARDGGYISSPEAMDYWGQGTSVTVSS
VL: DIVLTQSTSSLSASLGDRVTISCRASQDISNYLNWYQQKPDGTVKLLIYYTSRLHSGVPSRFSGSGSGTDYSLTISNLEQEDIATYFCQQGNTLPPTFGGGTKLEIKA
notes: also called murine anti-IL-11 monoclonal antibody MA-IV
B4: murine antibody molecule MA-II (mouse IgG1 / mouse Ckappa) (antibody)
heavy: B2 heavy
light: B2 light with P96W
notes: also called murine anti-IL-11 monoclonal antibody MA-II
B5: murine antibody molecule MA-III (mouse IgG1 / mouse Ckappa) (antibody, V domains shown)
VH: EVKLEQSGAEVVKPGALVKMSCKASGYTFTSYWMHWVKQRPGQGLEWIGVIDPSDSYTTYNQKFKGKATLTVDTSSSTGYMQLSSLTSEDSAVYYCSQYGYDVNWYFDVWGAGTTVTVSS
VL: DIVMTQTTLSLPVSLGDQASISCRSSQSIVHSNGNTYLEWYLQKPGQSPKLLIYEVSNRFSGVPDRFSGSGSGTDFTLKISRVEAEDLGVYYCFQGSHVPWTFGGGTKLEIKA
notes: also called murine anti-IL-11 monoclonal antibody MA-III
B6: humanized antibody molecule HA-I-C (antibody, human IgG1, kappa, L234A L235A, V domains shown)
VH: B1 VH
VL: B1 VL with P44V, F71Y, Y87F
B7: humanized antibody molecule HA-I-B (antibody, human IgG1, kappa, L234A L235A, V domains shown)
VH: B1 VH with A49S
VL: B1 VL with F71Y
B8: humanized antibody molecule HA-I-D (antibody, human IgG1, kappa, L234A L235A, V domains shown)
VH: B1 VH with V93M, L117S
VL: B1 VL with K42G, P44V, F71Y, Y87F
B9: chimeric antibody CA-I (antibody, human IgG1, kappa, L234A L235A)
heavy: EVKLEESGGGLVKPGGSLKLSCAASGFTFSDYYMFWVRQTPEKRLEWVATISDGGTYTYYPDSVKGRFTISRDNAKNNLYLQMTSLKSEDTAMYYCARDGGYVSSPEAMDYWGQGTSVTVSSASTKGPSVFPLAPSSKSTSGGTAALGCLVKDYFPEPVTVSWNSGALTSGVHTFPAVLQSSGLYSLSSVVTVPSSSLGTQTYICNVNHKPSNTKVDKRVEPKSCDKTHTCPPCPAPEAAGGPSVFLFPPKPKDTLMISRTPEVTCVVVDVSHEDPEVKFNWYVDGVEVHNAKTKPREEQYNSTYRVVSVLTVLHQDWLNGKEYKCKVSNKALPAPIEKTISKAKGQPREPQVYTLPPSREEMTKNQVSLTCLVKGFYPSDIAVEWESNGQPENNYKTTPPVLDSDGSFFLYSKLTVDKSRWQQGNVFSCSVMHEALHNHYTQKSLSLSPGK
light: DIVLTQSTSSLSASLGDRVTISCRASQDISNYLNWYQQKPDGTVKLLIYYTSRLHSGVPSRFSGSGSGTDYSLTISNLEQEDIATYFCQQGNTLPPTFGGGTKLEIKRTVAAPSVFIFPPSDEQLKSGTASVVCLLNNFYPREAKVQWKVDNALQSGNSQESVTEQDSKDSTYSLSSTLTLSKADYEKHKVYACEVTHQGLSSPVTKSFNRGEC
notes: Variable regions of MA-I on human IgG1 and human Ckappa constant regions
B10: chimeric antibody CA-II (antibody, human IgG1, kappa, L234A L235A)
heavy: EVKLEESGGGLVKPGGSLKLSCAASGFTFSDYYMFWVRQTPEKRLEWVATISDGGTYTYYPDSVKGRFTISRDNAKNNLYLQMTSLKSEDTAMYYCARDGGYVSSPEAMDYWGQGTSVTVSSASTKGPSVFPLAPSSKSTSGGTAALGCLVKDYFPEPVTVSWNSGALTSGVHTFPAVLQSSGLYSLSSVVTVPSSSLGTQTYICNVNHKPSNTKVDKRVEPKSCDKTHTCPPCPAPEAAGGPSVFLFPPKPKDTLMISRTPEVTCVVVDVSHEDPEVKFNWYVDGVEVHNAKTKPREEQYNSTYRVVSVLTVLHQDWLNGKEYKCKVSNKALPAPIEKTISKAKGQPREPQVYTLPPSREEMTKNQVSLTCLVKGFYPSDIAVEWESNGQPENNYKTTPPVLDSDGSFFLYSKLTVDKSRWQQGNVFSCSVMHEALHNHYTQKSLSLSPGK
light: B9 light with P96W
notes: Variable regions of MA-II on human IgG1 and human Ckappa constant regions
B11: humanized antibody molecule HA-II-B (antibody, human IgG1, kappa, L234A L235A, V domains shown)
VH: B1 VH
VL: B1 VL with F71Y, P96W
B12: humanized antibody molecule HA-II-C (antibody, human IgG1, kappa, L234A L235A, V domains shown)
VH: B1 VH with A49S
VL: B1 VL with F71Y, P96W
B13: humanized antibody molecule HA-II-D (antibody, human IgG1, kappa, L234A L235A, V domains shown)
VH: B1 VH with V93M, L117S
VL: B1 VL with K42G, A43T, P44V, F71Y, Y87F, P96W
B14: humanized antibody molecule HA-II-A (antibody, human IgG1, kappa, L234A L235A, V domains shown)
VH: B1 VH
VL: B1 VL with P96W

The first assay has as its target T1, mouse IL-11 (mouse, UniProt P47873 22-199, limits assumed).
T1 construct: Bought reagent; also called IL-11 (Mouse)
T1 sequence (looked up): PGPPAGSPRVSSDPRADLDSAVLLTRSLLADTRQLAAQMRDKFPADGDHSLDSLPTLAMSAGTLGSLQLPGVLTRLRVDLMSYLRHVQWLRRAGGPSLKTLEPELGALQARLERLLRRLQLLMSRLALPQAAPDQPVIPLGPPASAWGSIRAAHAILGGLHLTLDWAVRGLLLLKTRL
The experiment in a line: ELISA, mouse IL-11 coated, goat anti-human IgG Fab HRP detection.
On to B1, for which the EC50 came out at 0.0139 µg/mL.

A further assay addresses T2, IL-11-mFc ligand protein (human, UniProt P20809 22-199).
T2 sequence (looked up): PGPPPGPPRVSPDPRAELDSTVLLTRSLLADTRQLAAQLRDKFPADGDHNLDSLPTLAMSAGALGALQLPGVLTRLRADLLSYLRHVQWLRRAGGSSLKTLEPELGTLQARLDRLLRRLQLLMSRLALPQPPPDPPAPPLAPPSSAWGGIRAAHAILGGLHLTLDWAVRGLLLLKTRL
As to the kind of experiment: cell-based or functional assay.
As to B2, the “IC50 of inhibition of TIMP-1 secretion by MRC-5 cells stimulated with IL-11-mFc” value (“IC50 of inhibition of TIMP-1 secretion” for short) was 0.453 µg/mL.

As for B3, the “IC50 of inhibition of TIMP-1 secretion” value was found to be 4.6 µg/mL.

Regarding B4, the “IC50 of inhibition of TIMP-1 secretion” value is 0.475 µg/mL.

With B5, the “IC50 of inhibition of TIMP-1 secretion” value came to 1.36 µg/mL.

The target in the next assay is T3, human IL-11 (human, UniProt P20809 22-199, limits assumed).
T3 sequence (looked up): T2 sequence (looked up)
As to the kind of experiment: cell-based or functional assay.
For B6, the “IC50, reporter gene (BaF/3-GP130-STAT3-Luc cells stimulated with IL-11 protein, luciferase)” value (shortened to “IC50, reporter gene”) is 0.152 µg/mL.

For B7, the “IC50, reporter gene” value worked out at 0.103 µg/mL.

As to B1, the “IC50, reporter gene” value is 0.045 µg/mL.

As to B8, the “IC50, reporter gene” value was 0.465 µg/mL.

The target of the next assay is T2, IL-11-mFc ligand protein. As to the kind of experiment: flow cytometry: inhibition of IL-11-mFc binding to IL-11RA on BaF/3-IL-11RA cells, goat anti-mouse IgG-FITC detection.
For the molecule B2, the IC50 was found to be 3.3 µg/mL.

On to B3, for which the IC50 is 59.1 µg/mL.

Turning to B4, the IC50 was 11.1 µg/mL.

As for B5, the IC50 was determined as 19.1 µg/mL.

In another assay the target is T3, human IL-11. As to the kind of experiment: ELISA, IL-11 coated, goat anti-mouse IgG-HRP detection.
As to B2, the EC50 was 3.41 ng/mL.

B3 gave an EC50 of 4.25 ng/mL.

Turning to B4, the EC50 turned out to be 3.72 ng/mL.

Consider B5, for which the EC50 was found to be 3.79 ng/mL.

The target in the next assay is T4, cynomolgus monkey IL-11 (cynomolgus monkey, UniProt P20808 22-199, limits assumed).
T4 construct: Bought reagent; also called IL-11 (Cynomolgus)
T4 sequence (looked up): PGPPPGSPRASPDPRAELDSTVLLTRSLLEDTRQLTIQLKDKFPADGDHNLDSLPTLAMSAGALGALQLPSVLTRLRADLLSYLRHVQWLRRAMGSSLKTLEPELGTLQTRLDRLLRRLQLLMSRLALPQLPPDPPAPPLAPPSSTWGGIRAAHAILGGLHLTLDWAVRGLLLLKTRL
As to the kind of experiment: ELISA, cynomolgus monkey IL-11 coated, goat anti-human IgG Fab HRP detection.
The molecule B1 returned an EC50 of 0.239 µg/mL.

The next assay deals with T2, IL-11-mFc ligand protein. As to the kind of experiment: flow cytometry: inhibition of IL-11-mFc binding to GP130 on BaF/3-GP130 cells, goat anti-mouse IgG-FITC detection.
Molecule B6 had an IC50 of 46.2 µg/mL.

B7 showed an IC50 of 39.6 µg/mL.

B1: the IC50 worked out at 23.5 µg/mL.

B8 gave an IC50 of 128 µg/mL.

The target of a further assay is T3, human IL-11. As to the kind of experiment: ELISA, human IL-11 coated, goat anti-human IgG Fab HRP detection.
With B1, the response was half-maximal at 0.0106 µg/mL (EC50).

The next assay concerns the target T2, IL-11-mFc ligand protein. The experiment in a line: flow cytometry: inhibition of IL-11-mFc binding to IL-11RA on BaF/3-IL-11RA cells, goat anti-mouse IgG-FITC detection. This is another data set of the same source.
As to B6, the IC50 was found to be 4.87 µg/mL.

In turn, B7 had a 50% inhibitory concentration (IC50) of 3.58 µg/mL.

B1 came in with a 50% inhibitory concentration (IC50) of 1.68 µg/mL.

In turn, B8 registered a half-maximal inhibitory concentration (IC50) of 13.8 µg/mL.

A further assay has as its target T5, IL-11-Fc antigen (human, UniProt P20809 22-199, limits assumed).
T5 construct: The construct is not described; not shown: Fc part
T5 sequence (looked up): T2 sequence (looked up)
The experiment in a line: competition ELISA: IL-11-Fc coated, competitor IL-11RA-Fc (IgG4 type) at 0.5 ug/mL, anti-human IgG4-HRP detection.
Turning to B2, the IC50 is 0.331 µg/mL.

Consider B3, for which the IC50 came to 0.778 µg/mL.

Turning to B4, the IC50 was determined as 0.378 µg/mL.

The molecule B5 yielded a half-maximal inhibitory concentration (IC50) of 0.421 µg/mL.

In the next assay the target is T6, rat IL-11 (rat, UniProt Q99MF5 22-199, limits assumed).
T6 construct: Bought reagent; also called IL-11 (Rat)
T6 sequence (looked up): T1 sequence (looked up) with S50N, L84F, G94A, V137A, I138V
The experiment in a line: ELISA, rat IL-11 coated, goat anti-human IgG Fab HRP detection.
B1 came in with an EC50 of 0.0179 µg/mL.

Another assay deals with T3, human IL-11. The experiment in a line: ELISA, IL-11 coated, goat anti-human IgG Fab HRP detection.
On to B9, for which the EC50 is 0.0226 µg/mL.

In the case of B10, it took 0.0464 µg/mL to reach a half-maximal effect (EC50).

Molecule B6 showed an EC50 of 0.0252 µg/mL.

On to B11, for which it took 0.0883 µg/mL to reach a half-maximal effect (EC50).

As for B12, it took 0.0849 µg/mL to reach a half-maximal effect (EC50).

Consider B7, for which a half-maximal effect (EC50) was put at 0.0232 µg/mL.

B13 registered an EC50 of 0.0585 µg/mL.

As to B1, the EC50 stood at 0.0204 µg/mL.

B14 yielded an EC50 of 0.102 µg/mL.

Molecule B8 returned an EC50 of 0.0261 µg/mL.

The next assay addresses T2, IL-11-mFc ligand protein. As to the kind of experiment: cell-based or functional assay. This is another data set of the same source.
As to B6, the “IC50 of inhibition of TIMP-1 secretion” value worked out at 0.343 µg/mL.

As to B7, the “IC50 of inhibition of TIMP-1 secretion” value was 0.19 µg/mL.

For B1, the “IC50 of inhibition of TIMP-1 secretion” value was 0.101 µg/mL.

On to B8, for which the “IC50 of inhibition of TIMP-1 secretion” value is 0.657 µg/mL.

The values are drawn from patent EP4722243A1 (Beijing Dongfang Biotech Co. Ltd., dated 2026).
